# What was measured:
# [1] = tryptophan fluorescence, urea dissociation of peptide complexes, 25 µM peptide
# [2] = tryptophan fluorescence, urea dissociation of peptide complexes, 5 µM peptide
substance,measurement,setting,value
delta-haemolysin,midpoint of the unfolding curve,[1],The midpoints of the unfolding curves of 5 µM and 25 µM were 2.14 and 3.20M urea
same,midpoint of the unfolding curve,[2],The midpoints of the unfolding curves of 5 µM and 25 µM were 2.14 and 3.20M urea
